# Test results: the DeepSol protein solubility set
# Test: soluble on expression in E. coli; label from the status in PepcDB or PDB records
row,Sequence,soluble on expression in E. coli
1,MGSDKIHHHHHHMFPLVTITGEPFERGQQYGAATAALIRHSIASYARLFAYRRGMDWEAVQQAALAYEPLLHDVAPDLLTEMRGIAVGASRTLAEIIALNVRTELLAGVGVGFHHPEAAAALARNRAAGVPQHQEQLPATPATGSDDGECTTAAASPPATANGRVWLAQTWDWQGDQRAACVLLRVSGPDTPTLLTLTEAGMVAKIGLNEAGIAVGLNLLRSRADGQQQGMPVHVLLRQMLQSTDTVTARRLVSQIPAAGSSCITLAGADGELVALELTPTGIAEIPAQEGLLAHANHCLDGGTAAGECPLEPTSTTRERYGRAWELLHAAAGQIDLDVLQVILRDHDGAPRCICRHPDPRVAAVDRNESVCGVIIDLRGRTMHVAANIPCQAPFVPFML,not soluble
2,MILINKRAEKQDYQTILAIWEKSVIVTHDFLTAEDRQFYKEQIPLFLDNVELFLWFAGEEVIGFSGTSERELDMLFLDPVATGNGYGSQILGWLIENKRINLVDVNEQNENATRFYLKHGFVVSSRSDLDGFGKPYPILQLQLK,not soluble
3,MSSGSSNFLLVPIPEYPVLDCVPNKNVKIVVLGASNVGKTALIVRFLTKRFIGDYEANTGALYSRKINLDGEQVSLQVQDTPCVSLQDDADGLYCQEQINRSITGRTVMCSSSPSLTSTATAPSSLSTNMCAESTPAVTSLSSSWETRATFCEPDRSQIPKGRRWRMNWEGYTLRLRPGRTTRASRQLFCTYVRR,not soluble
4,MSLDSRPAVLEISASIIDISENALEQLGVDWRLHNSRFDLQTGNGTNTMLNNPGSLDSVATTAGAAAAIAATPAGGVLSAVIGGGSRYLMARISALQQTDQARITANPKVATLDNTEAVMDNRQNFYVPVAGYQSADLYAISAGVSLRVLPMVVMDGGTVRIRMNVHIEDGQITSQQVGNLPITSQSEIDTQALINEGDSLLIAGYSVEQQSKSVDAVPGLSKIPLVGALFRTDQTTGKRFQRMFLVTPRVITPEGHHHHHH,soluble
5,QVQLVESGGGLVQPGGSLRLSCAASGFTFSSYAMSWFRQAPGKEREIVSAVSGSGGSTYYADSVRGRFTISRDNSKNTLYLQMNSLRAEDTAVYYCAREPRIPRPPSFDYWGQGTLVTVSS,soluble
6,MSLSLFDMFKVGIGPSSSHTVGPMKAGKQFVDDLVEKGLLDNVTRVAVDVYGSLSLTGKGHHTDIAIIMGLAGNEPATVDIDSIPGFIRDVETRERLLLAQGRHEVDFPKDDGMRFHNGNLPLHENGMQIHAWHDDTVIYSKTYYSIGGGFIVDEEHFGQEATNEVTVPYPFKSAKEMLEYCNSTGLSLSGMVMQNELALHSKKEIEEYFGHVWQTMQACIDRGMNTEGVLPGPLRVPRRASALRRMLVSSDKLSSDPMNVIDWVNMFALAVNEENAAGGRVVTAPTNGACGIVPAVLAYYDHFIESVSPDIYTRYFLAAGAIGALYKMNASISGAEVGCQGEVGVACSMAAAGLAELLGASPEQVCVAAEIGMEHNLGLTCDPVAGQVQVPCIERNAIASVKAINAARMAMRRTSAPRVSLDKVIETMYETGKDMNAKYRETSRGGLAIKVQCDEGHHHHHH,soluble
7,AVSFIGSTENDVGPSQGSYSSTHAMDNLPFVYNTGYNIGYQNANVWRISGGFCVGLDGKVDLPVVGSLDGQSIYGLTEEVGLLIWMGDTNYSRGTAMSGNSWENVFSGWCVGNYVSTQGLSVHVRPVILKRNSSAQYSVQKTSIGSIRMRPYNGSSAGSVQTTVNFSLNPFTLNDTVT,soluble
8,MWQRIRLLQTLVSQKGAATAAAGAASSSPTAAAAAATTAAPPSPAPSVAADNERSFLRNLIPMRVYSSGPPSIYLRHAFLNQDRLIRRFLGALEAVPLPSLPRLLLAEGFQRMLEGDVPQRELRELFEDAEVECRKMLLHMDVSKSGHRRYHDSHADPRDQEMWHAVRHDPLRRLLAHELRAACSHYARLMGVSSSPYVPAAVIVRTIIASDVRTDNFLVKMTLAFERHPRNVETGEPVGEAMPPVVEELMKELLLLERDAFGCFRFDPRGDNHHLVHSLKLADITKTPRSFSVMRDPLMKRYGNYCVECEEVHKGRWNQYKVHCGPEDHRIDPALPLFESVVATDPITGGALNMLVHYDEPICLRHKHSLREEKGNFGHTEVFELAMDVTNRTFWERYFLDR,soluble
9,MENGEVLISGYRIPYSYAAMPGVKKNLVIIDIKGDEIWQKLRAADRINEWKINVYIPHFIAGSKEVVDSEPSSNLDSAGEFYYNFVQAMRLKNVMLMGEGINADVALKCSMIHPERFSNVIAIDGTGYDGYAEELYRVQKPVLLVWGGARGYRETMIGQSYHDLIAGSVFKVFDNSKRPLEDSTDRFFSMLKNYIAVD,not soluble
10,AHHHHHHGSKKRLPASRVYIKDILEGYFVKSEGDFEPNYLITKDARKIYRAKIVGTVIREPLIAEDETYGKFQIDDGTGVIWVLGFRDDTKFAKLVKKGDLVQVIGKIAEWRDDKQILVEGVAKVHPNMWILHRYETLKEKIEHARKAKIAFEIYNTYGITAKSKVIAKNKGVPEELLETIDELYGIIMEEKAMEEPVEELIEEEITEEGKEENEILEKVKQEILEILRSKKIAVSRKYILKKLGEKYDEETIEDAIAELLADGEIYEPETGYYKLL,not soluble
11,MRPMALPAWREVALPHEDIRRGRFDESTFAADLADVLAGRGPLEYRDPLTFFRKTYPTKGMVRLLGAVVRRLSGEKGGEPVVQIQTPFGGGKTHGLVALYHLFRSGEEARGTELYARVLEEAGVERIPEAKVAVFVGTAADPLKGRTPWGELALQLGHYGLLEEHDKARQAPGKERLYELFRAAGGPVLILMDEVAEYVARTVDPTALHKEGGSLEGGRAYQTQVLAFFQELTEAVKVAPQVALVMTIPSSAPYGEEGERALLQLQRIAGRLEAIYEPVKGWEIYDVIRTRLFEGIRDEGVVRKVAERYFELYRRLGTEVPDEARDPAYRERMRRAYPFHPELIDALYERWGTLSTFQRTRGVLRFLAEIVADLYGREHSAPLIHSAHVNLANPSIRRELVKHIGNEFDSVIAADIADPEGQAKAQRLDREMGSEYVRFQVASGLATAIFLYSFSGGERKGASPAQLRLAALRPEVPPPLVGDALGRLRELLWYLHEASGLYYFSSQPNLNRIVVERENAVDPEQIRQALRERLERIAGRELRVYLEPHSPQDVPDTKELKLAVLSEPSGSLAEELLEKAGTTFRTYKNTLFLLSPDPNSLGDLHRAARRYLALRSIREDRTLYGQLSAENRHRLDELLREADGALTQKLFMAYRRLTKPGRQGPETYDMGIPTVGEASTLAKRVYEYLKAREFLLERIAPRHLLSALAQGETGKPLQEVYEAFLRYPHLPVLKGWEVLEEAVRKGVAEGTFGLRVGERYYFQEPVLGIAWEEAFLVRKEALPPERESVVDGEKKGEASSEGVAPKPDSSEEEVPPDSSGGEARPERVQEYTVKVRLPWNRLSDFLRGVLMPLQREGAEMELQIELRARSQEGIPRATLDKIRETLDQLQAKVEEA,soluble
12,MFAPSTVYTYGHHGSGTDEDDGQQVMPGMDNGDGQCMVCGDRSAGKHYGVMACYGCKGFFRRTIRSQQTYTCRFTQKCAIDKDQRNACRYCRFQRCLTVGMEPEAIRPDRDVIGKQKNPRKKKMKSDTNSGSIDASLPSPNGCDSPVSNNEDVILSFLLDVEDQATCGNNHITMPIGISMMMKNDPDFDVSTLFHSQYVRNQESFPITYAVGRTASVEQLIAALRRYVLSAVHWIDALFNLAHLTEIHDKTTLLKSVIGPFTIFNIAARTAQISDGDLICLCNKSTINRQPARHLLDTNLVGNNFVGRVIDDLVFPTKKLALTNPEITILSALIILDPDARGLSQETSQALLGIRDRVQNALFNLIRDNSNNMTSVTSRFGNLLLLFPPLAKLSSLIGENVQLAKMFGIPIDSLLVELYVDADSPELISQGSHARERSDVSTQTASLEGASASMTPDVTSSEFVKMEQNESPSSSEEPMCIGAPATSSANAVATNLAADLLGLLPNFDATGLDLASAAAAAATSVNYSHFYGFGNLGGSLDDSSSSGTGSVGSFAPHSAPPISNNVNPFAVHGFFDNSAPNTGVVHNQPFRFV,not soluble
13,MGSDKIHHHHHHMSLANRYEFVYLFDVSNGNPNGDPDAGNLPRLDPETNQGLVTDVCLKRKLRNYVALEKENEPGFAIYMQEKSVLNHQHKRAYEALSLEPEPKKLPKDQAKARELTAWMCKNFFDVRAFGAVMTTEVNAGQVRGPIQLTFATSIDPVVPLEVSITRMAVTNDKDLEKERTMGRKHIVPYGLYRAHGFVSAKLAERAGFGEEDLQLLWRGLINMFEHDRSAARGEMTARKLIAFKHECALGNAPAHRLFDSVRVSRADGAGDSPARGFTDYRVELDRAVLPAGVEVLELL,not soluble
